Data on 16 molecules can be found in US20250002577A1 (ONCORESPONSE, published 2025).

Test [1] concerns the target T1, recombinant human LILRB2-His (human, UniProt Q8N423 22-461, limits assumed).
T1 construct: Bought protein; also called LILRB2 protein
In words: MSD ELISA, coated antigen, transfection supernatant. Here is the method:
(§1) To confirm binding to human LILRB1 and human LILRB2, transfection supernatants (obtained in Example 2) were evaluated for binding by ELISA. The conditioned media from these transient transfections were assayed for human IgG concentration by AlphaLISA® immunoassay (PerkinElmer, No. AL310C) (Table 4). A plate-based MSD ELISA was performed in which human LILRB1-His or LILRB2-His was immobilized, and binding of transfection supernatants of humanized mAb variants was detected via an anti-human IgG Sulfo-tag-labeled secondary antibody. The IgG1 version of the parental rabbit/human chimera (designated B21A1) transfection served as the benchmark EC₅₀ positive control.
(§2) Recombinant human and cynomolgus LILRB1 proteins (R&D Systems, No. 8989-T2-050; ACROBiosystems, No. CDJ-C52H3) and recombinant human and cynomolgus LILRB2 proteins (ACROBiosystems, No. LI2-H5220; No. L12-C52H3) were diluted in PBS to 4 μg/mL and added to a multi-array 384-well high-binding plates (MSD, No. L21XA4) at 10 μL/well and incubated at 4° C. overnight. The plates were washed several times with Wash Buffer (0.05% Tween® 20 in PBS), using a microplate washer and then blocked with 70 μL/well of 5% BSA in PBS for 1 hour (h) at room temperature (RT) with shaking at 700 rpm. After blocking, 20 μL/well of anti-LILRB2/LILRB1 antibodies or isotype control were added to the plates, and the plates were sealed and incubated for 2 h at RT with shaking at 700 rpm. After primary antibody binding, plates were washed five times with 70 μL/well of Wash Buffer (0.05% Tween® 20 in PBS) using a microplate washer. Secondary detection antibody (SULFO-TAG™-labeled goat anti-human IgG antibody (MSD, No. R32AJ-1)) was diluted to 4 μg/mL in assay diluent (1% BSA in PBS) and 10 μL/well was added to plates and incubated at RT protected from light for 1 h, with shaking at 700 rpm. Following incubation, plates were washed five times with Wash Buffer, using a microplate washer. After removal of the final wash, 35 μL/well of MSD Gold Read Buffer B (MSD, No. R60AM-4) was added to all wells using a Multidrop combo washer/dispenser, and plates were read using MESO Sector 600MM instrument (MSD) within 5 minutes (min) after addition of Read Buffer. Signals as counts per minute (cpm) were recorded.

Test [2] deals with T2, recombinant human LILRB1-His (human, UniProt Q8NHL6 24-458).
T2 construct: Bought protein; also called LILRB1 protein
Described as above. As for the experimental part:
as §1, §2

By EC50 is commonly meant the concentration at which the effect is half-maximal.

T2 sequence (Q8NHL6 24-458 limits assumed): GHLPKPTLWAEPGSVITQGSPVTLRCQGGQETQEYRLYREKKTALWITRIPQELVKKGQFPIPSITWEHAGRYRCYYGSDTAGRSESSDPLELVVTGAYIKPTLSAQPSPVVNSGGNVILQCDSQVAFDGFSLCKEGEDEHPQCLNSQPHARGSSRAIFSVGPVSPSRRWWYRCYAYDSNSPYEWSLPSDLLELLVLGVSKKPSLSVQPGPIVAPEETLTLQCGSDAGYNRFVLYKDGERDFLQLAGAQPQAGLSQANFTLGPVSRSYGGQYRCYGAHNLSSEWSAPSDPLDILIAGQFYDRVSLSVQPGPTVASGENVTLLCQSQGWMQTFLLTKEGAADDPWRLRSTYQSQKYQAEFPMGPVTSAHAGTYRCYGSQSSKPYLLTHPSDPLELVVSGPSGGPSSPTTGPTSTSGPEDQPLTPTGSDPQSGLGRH
T1 sequence (Q8N423 22-461 limits assumed): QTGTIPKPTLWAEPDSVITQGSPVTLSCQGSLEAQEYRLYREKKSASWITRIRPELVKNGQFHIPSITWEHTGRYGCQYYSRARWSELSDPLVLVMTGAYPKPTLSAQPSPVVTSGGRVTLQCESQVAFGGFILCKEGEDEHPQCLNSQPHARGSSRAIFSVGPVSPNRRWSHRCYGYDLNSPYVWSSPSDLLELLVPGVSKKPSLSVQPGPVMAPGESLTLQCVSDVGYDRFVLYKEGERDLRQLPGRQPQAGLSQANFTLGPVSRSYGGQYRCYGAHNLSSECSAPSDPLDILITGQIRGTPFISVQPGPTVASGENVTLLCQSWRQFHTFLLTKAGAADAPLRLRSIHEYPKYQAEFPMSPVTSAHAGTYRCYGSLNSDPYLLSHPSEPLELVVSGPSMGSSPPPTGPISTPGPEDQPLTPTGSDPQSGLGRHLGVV

B1: B21H4-35 (antibody, human IgG4 S228P, kappa, V domains shown)
VH: EVQLVESGGDLAQPGGSLRLSCAVSGFSLNTYAMTWVRQAPGKGLEWVSIIVASGGTYYASWAKGRFTISRDNSKNTVYLQMTSLRAEDTALYFCARGGMGSDWGESLDAFDPWGQGTLVTVSS
VL: DIQMTQTPSTVEASVGGTVTITCQASGNIYSFLAWYQQKPGQPPKLLIYTASNLETGVPSRFSGSGSGTEYTLTISGLQSDDAATYYCLGGLYSSDVSYAFGGGTEVVVKR
notes: humanized IgG4/kappa, VH3+VL5; transfection supernatant
On to B1, for which the results for the EC50 in test [1] and in test [2] were 1.73 ng/mL and 3.91 ng/mL, respectively.

B2: B21H4-31 (antibody, human IgG4 S228P, kappa, V domains shown)
VH: EVQLVESGGDLAQPGGSLRLSCAVSGFSLNTYAMTWVRQAPGKGLEWVSIIVASGGTYYASWAKGRFTISRDNSKNTVYLQMTSLRAEDTALYFCARGGMGSDWGESLDAFDPWGQGTLVTVSS
VL: DIQMTQSPSTLSASVGDRVTITCQASGNIYSFLAWYQQKPGKAPKLLIYTASNLETGVPSRFSGSGSGTEYTLTISSLQPDDFATYYCLGGLYSSDVSYAFGPGTKVEIKR
notes: humanized IgG4/kappa, VH3+VL1; transfection supernatant
In the case of B2, the concentration for a half-maximal effect (EC50) is 2.02 ng/mL in test [1] and 3.58 ng/mL in test [2].

B3: B21H4-55 (antibody, human IgG4 S228P, kappa)
heavy: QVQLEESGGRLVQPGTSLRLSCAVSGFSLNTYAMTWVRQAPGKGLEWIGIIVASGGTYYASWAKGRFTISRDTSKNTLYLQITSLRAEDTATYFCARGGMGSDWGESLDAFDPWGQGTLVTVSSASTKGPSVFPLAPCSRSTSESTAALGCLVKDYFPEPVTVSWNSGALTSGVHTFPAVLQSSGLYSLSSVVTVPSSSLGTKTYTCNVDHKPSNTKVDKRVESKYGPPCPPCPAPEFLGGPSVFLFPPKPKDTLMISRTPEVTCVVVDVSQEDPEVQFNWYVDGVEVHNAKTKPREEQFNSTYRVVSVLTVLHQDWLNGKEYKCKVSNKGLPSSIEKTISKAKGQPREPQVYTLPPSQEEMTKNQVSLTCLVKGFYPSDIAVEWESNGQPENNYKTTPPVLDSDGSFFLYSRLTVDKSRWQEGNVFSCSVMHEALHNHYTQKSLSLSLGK
light: DIQMTQTPSTVEASVGGTVTITCQASGNIYSFLAWYQQKPGQPPKLLIYTASNLETGVPSRFSGSGSGTEYTLTISGLQSDDAATYYCLGGLYSSDVSYAFGGGTEVVVKRTVAAPSVFIFPPSDEQLKSGTASVVCLLNNFYPREAKVQWKVDNALQSGNSQESVTEQDSKDSTYSLSSTLTLSKADYEKHKVYACEVTHQGLSSPVTKSFNRGEC
notes: humanized IgG4/kappa, VH5+VL5; transfection supernatant
As for B3, the EC50 in test [1] came to 1.57 ng/mL; in test [2] it was 2.92 ng/mL.

B4: B21H4-25 (antibody, human IgG4 S228P, kappa)
heavy: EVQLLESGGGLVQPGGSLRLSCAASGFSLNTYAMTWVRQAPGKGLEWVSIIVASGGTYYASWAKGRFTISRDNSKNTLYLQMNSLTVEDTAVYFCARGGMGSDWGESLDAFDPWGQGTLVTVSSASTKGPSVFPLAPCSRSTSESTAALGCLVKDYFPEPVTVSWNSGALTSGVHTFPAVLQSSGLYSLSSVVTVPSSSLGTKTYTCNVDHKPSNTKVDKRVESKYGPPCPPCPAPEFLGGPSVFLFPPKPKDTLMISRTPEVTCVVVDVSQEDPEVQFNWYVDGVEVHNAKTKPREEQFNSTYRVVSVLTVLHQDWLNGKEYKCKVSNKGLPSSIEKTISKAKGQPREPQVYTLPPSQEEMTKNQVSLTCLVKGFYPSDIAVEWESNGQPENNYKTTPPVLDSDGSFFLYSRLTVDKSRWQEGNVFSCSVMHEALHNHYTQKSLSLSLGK
light: DIQMTQTPSTVEASVGGTVTITCQASGNIYSFLAWYQQKPGQPPKLLIYTASNLETGVPSRFSGSGSGTEYTLTISGLQSDDAATYYCLGGLYSSDVSYAFGGGTEVVVKRTVAAPSVFIFPPSDEQLKSGTASVVCLLNNFYPREAKVQWKVDNALQSGNSQESVTEQDSKDSTYSLSSTLTLSKADYEKHKVYACEVTHQGLSSPVTKSFNRGEC
notes: humanized IgG4/kappa, VH2+VL5; transfection supernatant
Take B4: the concentration for a half-maximal effect (EC50) in test [1] was determined as 1.42 ng/mL; in test [2] it was 3.95 ng/mL.

B5: B21H4-15 (antibody, human IgG4 S228P, kappa)
heavy: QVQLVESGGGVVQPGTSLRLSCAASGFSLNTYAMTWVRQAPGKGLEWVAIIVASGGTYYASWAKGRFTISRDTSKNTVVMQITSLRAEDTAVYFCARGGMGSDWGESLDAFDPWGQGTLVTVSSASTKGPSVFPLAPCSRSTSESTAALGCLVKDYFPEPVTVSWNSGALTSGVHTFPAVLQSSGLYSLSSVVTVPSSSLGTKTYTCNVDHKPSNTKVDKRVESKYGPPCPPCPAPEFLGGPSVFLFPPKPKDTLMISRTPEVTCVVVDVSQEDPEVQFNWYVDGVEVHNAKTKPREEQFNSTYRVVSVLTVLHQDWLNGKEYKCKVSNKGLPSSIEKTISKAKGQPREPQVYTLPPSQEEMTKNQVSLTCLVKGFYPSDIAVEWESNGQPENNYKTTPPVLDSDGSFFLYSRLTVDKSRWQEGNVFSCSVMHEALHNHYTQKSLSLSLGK
light: DIQMTQTPSTVEASVGGTVTITCQASGNIYSFLAWYQQKPGQPPKLLIYTASNLETGVPSRFSGSGSGTEYTLTISGLQSDDAATYYCLGGLYSSDVSYAFGGGTEVVVKRTVAAPSVFIFPPSDEQLKSGTASVVCLLNNFYPREAKVQWKVDNALQSGNSQESVTEQDSKDSTYSLSSTLTLSKADYEKHKVYACEVTHQGLSSPVTKSFNRGEC
notes: humanized IgG4/kappa, VH1+VL5; transfection supernatant
Consider B5, for which the values for the EC50 in test [1] and in test [2] were 1.25 ng/mL and 3.1 ng/mL, respectively.

B6: B21H4-11 (antibody, human IgG4 S228P, kappa)
heavy: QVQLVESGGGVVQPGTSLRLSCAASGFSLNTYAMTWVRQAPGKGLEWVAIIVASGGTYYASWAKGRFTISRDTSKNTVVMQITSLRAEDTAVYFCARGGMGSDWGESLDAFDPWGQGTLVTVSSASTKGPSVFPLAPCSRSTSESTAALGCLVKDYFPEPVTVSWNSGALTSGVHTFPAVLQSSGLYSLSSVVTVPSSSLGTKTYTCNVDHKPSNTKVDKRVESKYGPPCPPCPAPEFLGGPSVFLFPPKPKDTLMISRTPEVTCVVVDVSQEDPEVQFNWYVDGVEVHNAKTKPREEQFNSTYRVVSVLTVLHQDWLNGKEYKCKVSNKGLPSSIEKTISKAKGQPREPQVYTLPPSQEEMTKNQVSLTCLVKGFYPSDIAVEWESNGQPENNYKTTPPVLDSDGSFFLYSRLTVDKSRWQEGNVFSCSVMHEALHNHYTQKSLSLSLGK
light: DIQMTQSPSTLSASVGDRVTITCQASGNIYSFLAWYQQKPGKAPKLLIYTASNLETGVPSRFSGSGSGTEYTLTISSLQPDDFATYYCLGGLYSSDVSYAFGPGTKVEIKRTVAAPSVFIFPPSDEQLKSGTASVVCLLNNFYPREAKVQWKVDNALQSGNSQESVTEQDSKDSTYSLSSTLTLSKADYEKHKVYACEVTHQGLSSPVTKSFNRGEC
notes: humanized IgG4/kappa, VH1+VL1; transfection supernatant
Take B6: the concentration giving a half-maximal response (EC50) in test [1] turned out to be 1.45 ng/mL; in test [2], 2.24 ng/mL.

B7: B21H4-12 (antibody, human IgG4 S228P, kappa)
heavy: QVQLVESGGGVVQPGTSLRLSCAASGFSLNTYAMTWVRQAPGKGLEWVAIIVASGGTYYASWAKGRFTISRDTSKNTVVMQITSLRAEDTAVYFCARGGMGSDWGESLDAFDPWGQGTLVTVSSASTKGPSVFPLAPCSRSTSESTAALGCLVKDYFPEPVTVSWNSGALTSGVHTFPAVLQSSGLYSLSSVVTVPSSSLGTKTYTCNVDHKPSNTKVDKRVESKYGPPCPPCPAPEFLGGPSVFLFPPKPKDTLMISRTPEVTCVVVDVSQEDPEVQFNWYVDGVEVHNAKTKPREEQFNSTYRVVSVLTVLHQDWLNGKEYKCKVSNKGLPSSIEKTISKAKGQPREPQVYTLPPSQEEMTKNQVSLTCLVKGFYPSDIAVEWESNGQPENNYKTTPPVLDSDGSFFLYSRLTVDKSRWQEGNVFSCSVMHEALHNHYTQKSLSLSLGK
light: DIQMTQSPSSLSASVGDRVTITCQASGNIYSFLAWYQQKPGKVPKLLIYTASNLETGVPSRFSGSGSGTDYTLTISSLQSEDAATYYCLGGLYSSDVSYAFGGGTKVVIKRTVAAPSVFIFPPSDEQLKSGTASVVCLLNNFYPREAKVQWKVDNALQSGNSQESVTEQDSKDSTYSLSSTLTLSKADYEKHKVYACEVTHQGLSSPVTKSFNRGEC
notes: humanized IgG4/kappa, VH1+VL2; transfection supernatant
As for B7, the EC50 in test [1] came to 0.74 ng/mL; in test [2], 2.41 ng/mL.

B8: B21H4-32 (antibody, human IgG4 S228P, kappa)
heavy: not shown
light: DIQMTQSPSSLSASVGDRVTITCQASGNIYSFLAWYQQKPGKVPKLLIYTASNLETGVPSRFSGSGSGTDYTLTISSLQSEDAATYYCLGGLYSSDVSYAFGGGTKVVIKRTVAAPSVFIFPPSDEQLKSGTASVVCLLNNFYPREAKVQWKVDNALQSGNSQESVTEQDSKDSTYSLSSTLTLSKADYEKHKVYACEVTHQGLSSPVTKSFNRGEC
notes: humanized IgG4/kappa, VH3+VL2; transfection supernatant
With B8, the concentration for a half-maximal effect (EC50) in test [1] is 0.95 ng/mL; in test [2] it was 2.46 ng/mL.

B9: B21H4-42 (antibody, human IgG4 S228P, kappa)
heavy: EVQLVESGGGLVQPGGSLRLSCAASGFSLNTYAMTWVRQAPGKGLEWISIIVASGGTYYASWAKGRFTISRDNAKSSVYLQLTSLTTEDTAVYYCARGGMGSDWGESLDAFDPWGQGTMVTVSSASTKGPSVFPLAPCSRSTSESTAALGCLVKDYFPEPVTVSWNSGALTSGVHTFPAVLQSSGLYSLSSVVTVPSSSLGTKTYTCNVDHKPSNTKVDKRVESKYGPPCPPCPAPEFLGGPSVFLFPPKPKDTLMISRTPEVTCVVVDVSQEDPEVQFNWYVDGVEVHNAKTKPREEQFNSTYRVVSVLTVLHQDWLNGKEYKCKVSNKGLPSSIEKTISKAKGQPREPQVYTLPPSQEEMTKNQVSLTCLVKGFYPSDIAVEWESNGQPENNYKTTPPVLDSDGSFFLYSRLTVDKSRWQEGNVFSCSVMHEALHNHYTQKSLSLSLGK
light: DIQMTQSPSSLSASVGDRVTITCQASGNIYSFLAWYQQKPGKVPKLLIYTASNLETGVPSRFSGSGSGTDYTLTISSLQSEDAATYYCLGGLYSSDVSYAFGGGTKVVIKRTVAAPSVFIFPPSDEQLKSGTASVVCLLNNFYPREAKVQWKVDNALQSGNSQESVTEQDSKDSTYSLSSTLTLSKADYEKHKVYACEVTHQGLSSPVTKSFNRGEC
notes: humanized IgG4/kappa, VH4+VL2; transfection supernatant
For B9, the 50% effective concentration (EC50) came to 1.08 ng/mL in test [1] and 3.12 ng/mL in test [2].

B10: B21H4-23 (antibody, human IgG4 S228P, kappa)
heavy: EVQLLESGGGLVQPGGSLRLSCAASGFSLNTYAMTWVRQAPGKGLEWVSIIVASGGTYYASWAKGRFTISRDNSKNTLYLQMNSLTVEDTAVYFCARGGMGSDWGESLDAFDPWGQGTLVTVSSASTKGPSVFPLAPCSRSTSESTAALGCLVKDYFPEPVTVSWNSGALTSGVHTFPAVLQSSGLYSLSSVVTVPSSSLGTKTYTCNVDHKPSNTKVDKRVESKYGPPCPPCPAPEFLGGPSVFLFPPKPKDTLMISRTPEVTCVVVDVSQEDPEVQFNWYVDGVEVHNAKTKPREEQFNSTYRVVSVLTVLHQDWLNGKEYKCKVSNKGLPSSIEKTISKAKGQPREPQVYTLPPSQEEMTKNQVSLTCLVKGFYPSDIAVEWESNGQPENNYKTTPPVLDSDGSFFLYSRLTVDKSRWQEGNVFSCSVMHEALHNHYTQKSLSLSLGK
light: DIVMTQSPSSVSASVGDRVTITCQASGNIYSFLAWYQQKPGKAPKLLIYTASNLETGVPSRFSGSGSGTDFTLTISSLQPEDFATYYCLGGLYSSDVSYAFGGGTKVVIKRTVAAPSVFIFPPSDEQLKSGTASVVCLLNNFYPREAKVQWKVDNALQSGNSQESVTEQDSKDSTYSLSSTLTLSKADYEKHKVYACEVTHQGLSSPVTKSFNRGEC
notes: humanized IgG4/kappa, VH2+VL3; transfection supernatant
On to B10, for which the EC50 in test [1] was found to be 1.08 ng/mL; in test [2], 2.85 ng/mL.

B11: B21H4-43 (antibody, human IgG4 S228P, kappa)
heavy: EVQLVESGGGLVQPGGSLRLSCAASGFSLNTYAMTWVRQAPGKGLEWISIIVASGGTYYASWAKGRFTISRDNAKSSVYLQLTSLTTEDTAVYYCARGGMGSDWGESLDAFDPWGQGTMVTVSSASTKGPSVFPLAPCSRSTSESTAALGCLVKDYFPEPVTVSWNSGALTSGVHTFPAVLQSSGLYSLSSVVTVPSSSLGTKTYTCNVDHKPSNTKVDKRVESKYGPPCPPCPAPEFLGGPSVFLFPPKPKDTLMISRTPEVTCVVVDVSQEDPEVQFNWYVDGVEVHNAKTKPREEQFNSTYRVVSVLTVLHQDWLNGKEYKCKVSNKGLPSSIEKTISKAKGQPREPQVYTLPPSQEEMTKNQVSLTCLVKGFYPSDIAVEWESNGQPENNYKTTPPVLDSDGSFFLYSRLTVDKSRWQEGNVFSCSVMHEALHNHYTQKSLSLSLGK
light: DIVMTQSPSSVSASVGDRVTITCQASGNIYSFLAWYQQKPGKAPKLLIYTASNLETGVPSRFSGSGSGTDFTLTISSLQPEDFATYYCLGGLYSSDVSYAFGGGTKVVIKRTVAAPSVFIFPPSDEQLKSGTASVVCLLNNFYPREAKVQWKVDNALQSGNSQESVTEQDSKDSTYSLSSTLTLSKADYEKHKVYACEVTHQGLSSPVTKSFNRGEC
notes: humanized IgG4/kappa, VH4+VL3; transfection supernatant
Take B11: the results for the concentration for a half-maximal effect (EC50) in test [1] and in test [2] were 0.63 ng/mL and 3.04 ng/mL, respectively.

B12: B21H4-21 (antibody, human IgG4 S228P, kappa, V domains shown)
VH: EVQLLESGGGLVQPGGSLRLSCAASGFSLNTYAMTWVRQAPGKGLEWVSIIVASGGTYYASWAKGRFTISRDNSKNTLYLQMNSLTVEDTAVYFCARGGMGSDWGESLDAFDPWGQGTLVTVSS
VL: DIQMTQSPSTLSASVGDRVTITCQASGNIYSFLAWYQQKPGKAPKLLIYTASNLETGVPSRFSGSGSGTEYTLTISSLQPDDFATYYCLGGLYSSDVSYAFGPGTKVEIKR
notes: humanized IgG4/kappa, VH2+VL1; transfection supernatant
Consider B12, for which the concentration giving a half-maximal response (EC50) turned out to be 1.93 ng/mL in test [1] and 2.32 ng/mL in test [2].

B13: B21H4-24 (antibody, human IgG4 S228P, kappa)
heavy: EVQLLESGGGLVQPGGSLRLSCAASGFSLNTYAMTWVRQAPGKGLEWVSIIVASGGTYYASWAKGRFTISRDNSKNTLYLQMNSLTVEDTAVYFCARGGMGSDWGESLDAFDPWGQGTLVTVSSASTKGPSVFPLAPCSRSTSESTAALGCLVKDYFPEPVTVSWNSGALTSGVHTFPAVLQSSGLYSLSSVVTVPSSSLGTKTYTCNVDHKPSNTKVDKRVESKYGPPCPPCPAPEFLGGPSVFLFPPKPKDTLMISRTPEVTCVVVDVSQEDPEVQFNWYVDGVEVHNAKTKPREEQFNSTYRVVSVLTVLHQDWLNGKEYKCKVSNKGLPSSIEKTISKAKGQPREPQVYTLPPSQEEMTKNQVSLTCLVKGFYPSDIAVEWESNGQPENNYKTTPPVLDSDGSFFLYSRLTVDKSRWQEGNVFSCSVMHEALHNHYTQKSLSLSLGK
light: DVVMTQSPSTVSASVGDRVTLTCQASGNIYSFLAWYQQKPGQPPKLLIYTASNLETGVPDRFSGSGSGTDYTLTISSLQADDFATYYCLGGLYSSDVSYAFGQGTKVEIKRTVAAPSVFIFPPSDEQLKSGTASVVCLLNNFYPREAKVQWKVDNALQSGNSQESVTEQDSKDSTYSLSSTLTLSKADYEKHKVYACEVTHQGLSSPVTKSFNRGEC
notes: humanized IgG4/kappa, VH2+VL4; transfection supernatant
B13: the half-maximal effective concentration (EC50) was 0.84 ng/mL in test [1] and 1.95 ng/mL in test [2].

B14: B21H4-33 (antibody, human IgG4 S228P, kappa)
heavy: not shown
light: DIVMTQSPSSVSASVGDRVTITCQASGNIYSFLAWYQQKPGKAPKLLIYTASNLETGVPSRFSGSGSGTDFTLTISSLQPEDFATYYCLGGLYSSDVSYAFGGGTKVVIKRTVAAPSVFIFPPSDEQLKSGTASVVCLLNNFYPREAKVQWKVDNALQSGNSQESVTEQDSKDSTYSLSSTLTLSKADYEKHKVYACEVTHQGLSSPVTKSFNRGEC
notes: humanized IgG4/kappa, VH3+VL3; transfection supernatant
As for B14, the 50% effective concentration (EC50) amounted to 0.72 ng/mL in test [1] and 2.66 ng/mL in test [2].

B15: B21H4-22 (antibody, human IgG4 S228P, kappa)
heavy: not shown
light: DIQMTQSPSSLSASVGDRVTITCQASGNIYSFLAWYQQKPGKVPKLLIYTASNLETGVPSRFSGSGSGTDYTLTISSLQSEDAATYYCLGGLYSSDVSYAFGGGTKVVIKRTVAAPSVFIFPPSDEQLKSGTASVVCLLNNFYPREAKVQWKVDNALQSGNSQESVTEQDSKDSTYSLSSTLTLSKADYEKHKVYACEVTHQGLSSPVTKSFNRGEC
notes: humanized IgG4/kappa, VH2+VL2; transfection supernatant
For the molecule B15, the half-maximal effective concentration (EC50) is 1.06 ng/mL in test [1] and 1.85 ng/mL in test [2].

B16: B21H4-41 (antibody, human IgG4 S228P, kappa, V domains shown)
VH: EVQLVESGGGLVQPGGSLRLSCAASGFSLNTYAMTWVRQAPGKGLEWISIIVASGGTYYASWAKGRFTISRDNAKSSVYLQLTSLTTEDTAVYYCARGGMGSDWGESLDAFDPWGQGTMVTVSS
VL: DIQMTQSPSTLSASVGDRVTITCQASGNIYSFLAWYQQKPGKAPKLLIYTASNLETGVPSRFSGSGSGTEYTLTISSLQPDDFATYYCLGGLYSSDVSYAFGPGTKVEIKR
notes: humanized IgG4/kappa, VH4+VL1; transfection supernatant
As to B16, the EC50 in test [1] stood at 1.38 ng/mL; in test [2] it was 5.71 ng/mL.
